Measurements as given in article doi:10.1101/2023.08.28.555187.

Tests used:
[1] = biological target: soluble Fc-tagged VEGFR3; experiment: ELISA
[2] = biological target: decorin protein core (UniProt P07585); experiment: ELISA

Sequence of decorin protein core (P07585 31-359): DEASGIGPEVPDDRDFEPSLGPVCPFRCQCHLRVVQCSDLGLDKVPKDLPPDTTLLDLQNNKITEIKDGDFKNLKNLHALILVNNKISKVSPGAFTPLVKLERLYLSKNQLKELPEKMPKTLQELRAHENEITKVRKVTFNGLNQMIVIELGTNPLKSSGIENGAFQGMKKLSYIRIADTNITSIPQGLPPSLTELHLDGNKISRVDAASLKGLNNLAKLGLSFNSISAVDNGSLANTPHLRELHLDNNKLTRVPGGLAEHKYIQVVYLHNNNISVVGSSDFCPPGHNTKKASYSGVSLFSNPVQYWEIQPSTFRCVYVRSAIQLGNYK

Q: Which percent of bound decorin protein core displaced [1] does the source give for “VEGFC (from UniProt P49767 32-227) (ligand)” here?
A: The percent of bound decorin protein core displaced was 20%.

Q: For “decorin protein core (from UniProt P07585 31-359) (natural protein)”, which Kd [1] is on record?
A: Its Kd is 27 nM.

Q: With soluble Fc-tagged VEGFR3 (Fc fusion) as the substance, how does the Kd [2] read?
A: The Kd was 47 nM.
